Test results reported in US7507799.

How the values were obtained:
[1] = tested on: T1, rat BDNF secreted by adenovirus-infected 293T or endothelial cells (proforms of 30 kDa and 28 kDa)
T1 sequence: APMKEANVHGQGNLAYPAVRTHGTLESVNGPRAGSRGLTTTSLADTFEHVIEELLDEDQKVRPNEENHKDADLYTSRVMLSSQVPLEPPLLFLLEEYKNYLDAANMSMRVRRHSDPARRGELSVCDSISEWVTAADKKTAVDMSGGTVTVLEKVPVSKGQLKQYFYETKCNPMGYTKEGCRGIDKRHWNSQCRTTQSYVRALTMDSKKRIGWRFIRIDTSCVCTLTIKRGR

[2] = tested on: His-tagged cleavage resistant pro-NGF (point mutant, K-R cleavage site at 120,121 mutated to A-A)

B1: MMP-7 (enzyme, UniProt P09237 95-267, looked up, species assumed)
Matrilysin: YSLFPNSPKWTSKVVTYRIVSYTRDLPHITVDRLVSKALNMWGKEIPLHFRKVVWGTADIMIGFARGAHGDSYPFDGPGNTLAHAFAPGTGLGGDAHFDEDERWTDGSSLGINFLYAATHELGHSLGMGHSSDPNAVMYPTYGNGDPQNFKLSQDDIKGIQKLYGKRSNSRKK
[1]
  proteolytic cleavage in endothelial media, Western blot: In endothelial media, only plasmin and MMP-7 appeared to cleave the large proform
  proteolytic cleavage, Western blot: Treatment of the media with recombinant MMP7 resulted in a reduction in the high molecular weight isoforms of 30 kDa or 28 kDa, and the generation of a novel form of approximately 17 kDa
[2]
  proteolytic cleavage, Western blot: incubation of the pro-NGF with MMP-7 but not MMP-2, -3, or -9 resulted in cleavage of the 30 kD proform of NGF to the 17 kD form
